# In the DeepSol protein solubility set:
# Assay: soluble on expression in E. coli; label from the status in PepcDB or PDB records
row,Sequence,soluble on expression in E. coli
1,MKIKHLPFDQNRNGWSADLVDKPNYPQQRGKTTADWLVIGAGYAGIAFAQRLAEQRPDKHIILLDAGEIGDNASGRNSGFVIDLPHNIGSSTAELEKAAAYRRLLQSGVAHLKEKVDRHAIACDWSVAGKYHCAVSSTFNGLIDTYVRELNGLGEPYQVVEKDELARRLGTSFYQRAVYTPNCILLNPAALVIGLVASLPKNVTVYAHSPALNIETGSRIRVETPYGEIQADKLMMAINGAARGLPLFNGRVFAVTTFATLTEPLNAEQTARMGDMPDWGLTPVNALASATLRYTRDHRFLIREHVKFAPELVNSAVETGRHARRHAAIFARMFPQLSDVKMAHTWSGLISVTRNGAPIWGQLSDNVFASAGCNGAGLSKQTAAGHILADLALGEDNPLISDMQSLGQANYLPPRPFLDVGVNGYLTSERWKARSERLEHHHHHH,not soluble
2,MAHHHHHHMQIGLAGCSSSLHTSPSSGSAAGSGFYGARGQEAAASATVNSSGANGLCAGATMSSPSATPTLPPLPSTMDEPVDLFPLTPSVSMLQRHSKRSGRLLNESETMQEKHGQEYRFLVPWLAYAIDCTIAAHEVLRQKHGIPAHVSSPASPSANTLNGATDVKRSSRGSANGDPTYADTAGGSSGSGQAALPSPQAELNAFSTREVPAISVHDYLKRIVKYTYVSPSVLVCGCLYLDRLLCMHPCMLLHPYNVFKLFLTSTRMASKIMDTRTLNNHDFSVVGGVTNDDLNALEFLMVELLQNRLYFSRDTFDEYCRPLRLQAAHLTEEASDWGAETAMETPVETRSGVQHQPTRPFLARCNGSNTRSRRSSILSQNEYSVSIASQSGVSPLRSASRPAFPPSASTARSISVDTESIGPARAPASRGGSASTSAPRHPLGTSYSPALPHVPHTAANGGSSPALGAMGGLSGRGASGEDMLRVATHTNSIYQSSNGVWTGQTPPDSVTVLVGVEERGDERARSISLSAPRCGATTSWDATGRPSRLLAASTSTMAGLCTAALNGGRGGYESSPNVCAAPTYNRASASSSRGITASAEDFGAGSMVISYSDRTPTRRAFSHASREGIALPPVVCSGRSERSASVIGVAAQGQRLPPPPDQPRV,not soluble
3,MGSDKIHHHHHHMAEPSGLLKKGEKMDSMLCTKRTLLSDEFQHWARLFMKTGKLHRKFWEWCFIAQALKEHDMLAPGRIGLGFGVGEEPLSSCFASFGASILATDLDLQNSSVAGWTKTSQHADNKGKLNKLGICPGWEFENLVEFEFANMNSIPKRYTGKFDFVWSSCSLEHLGSIEKGVTFILNSINCLKPGGVAVHTTEFNVSPNSDTIETGPTVLFRRKEIEDIIERVRSFGCRAHINWDHGDLPEDYYIDIPPYSHNPHLKLRISKYVVTSIGLVISK,not soluble
4,MGSDKIHHHHHHVNGLPLVELSGDAYTQGWQHGRALREAIAANLRIYMTRFERELRIPPDEVWRRALRYAAVIAEQNQDYAAGMRGIAEGAGVDLAAIAALNVRYELFYQFFREYERGTGKPDGCTAFALLPSETDNGHLLVGENWDWIQGVRGAILRTIAPDGLRTLAFTEAGIFGGKIGLNAAGLALLINGLSSTGDDWASLRRPFHVRCYEILQARSLTEAQAVITSEERAGSANFLLAQVPDRVVNIEAAPAALAISGCTNGCLVHANHFTDPAALGIVERQIERYPHSYWRQERLRSLLASRPQSLAQVQAALRDHEQFPYSVCFHIDPADPPDEYYETVASVIMDVTAGVLYATDGPPCEHAYVRYELEVAR,not soluble
5,MSKTFKDYGTGSGKDVIADEKPFSILLMGVDTGSSERTSKWEGNSDSMILVTVNPKTKKTTMTSLERDILVKLSGSKTNDQTGYDAKLNAAYAAGGAKMAIMTVQDMLDIKIDKYVQINMEGLVQLVDAVGGITVTNHFDFPISIEEHEPEFTASVEPGTHKINGEQALVYSRMRYDDPDGDYGRQKRQREVISKVLKKILALDSVSKYRKILSAVSKNMQTNIEISSSTIPKLLGYSDALKSIRTYQLKGEGTTIDGGSYQLVTSKELLKAQNRIKGQLGLKKSTAENLKTTASLYENFYGGDTSIYDSSSSASDYSSSGNYSGSSSDYGSSSSYGSNSSSGSSSDYSGQNSYNQGNYQQPAAGTGIGNLEHHHHHH,soluble
6,MGSDKIHHHHHHMPDGNQSLTVTVLSAIAEIGAEEWDGCAGSHNPFIRHAFLLAMEHSGSATAQTGWTPRHLAVRDAEGRLLAAAPLYLKSHSFGEYVFDWSWAQAYERAGGRYYPKLQCAVPFTPVTGPRLLVRPGEDGPRLRRVLAASMVDLARRLGASSVHVTFPSGQEYEGLGEVGYLQRLGSQYHWSNQGYQSFDDFLGQLSSRKRKQIRKERDAVARSGVRITTLVGTEVKSRHWDVFHAFYESVVDRKWGRAYVNRAFFEELSASNLAEAVVLVWAEDDGEPLGAAFNMLGKDTLYGRTWGGGRHVDFLHFEACYYRALDFAIAHGLARVEAGAQGEHKVSRGYLPTPTYSAHWIADAALAEPVARYLAHERAQVAEDMADQTEEGPFRKA,not soluble
7,MSLRTSASLAGSLAYGMADFLGRSEHLSIIDMIVPRMRQDNVETVVGMFDGQPSSTGGSRVAKFLHENFLHTFSAELKRLRRDEQETPLDAFRRTFLTLNRNMAFACYKSIDQDVRLFQEDSSDQKKVRLNKEDLQSGGVATVLYLNNTDLYAANIGDAQAILVKSDGSMRYLTRNHDPAEAGERARIRAAGGFVSRNGRLNDYLPVSRSFGYFNLMPAVIAAPHTMHVSLTEQDEMIILASKELWDYVTPDLVVDVTRAERRDLMVAAQKIRDLALSFGANNKLMVMILGVGDLREGHHHHHH,soluble
8,MRTGKQYLESLNDGRVVWVGNEKIDNVATHPLTRDYAERVAQFYDLHHRPDLQDVLTFVDADGVRRSRQWQDPKDAAGLRVKRKYHETILREIAAGSYGRLPDAHNYTFTTYADDPEVWEKQSIGAEGRNLTQNIHNFLKLLREKDLNCPLNFVDPQTDRSSDAAQARSPNLRIVEKTDDGIIVNGVKAVGTGIAFGDYMHIGCLYRPGIPGEQVIFAAIPTNTPGVTVFCRESTVKNDPAEHPLASQGDELDSTTVFDNVFIPWEQVFHIGNPEHAKLYPQRIFDWVHYHILIRQVLRAELIVGLAILITEHIGTSKLPTVSARVAKLVAFHLAMQAHLIASEETGFHTKGGRYKPNPLIYDFGRAHFLQNQMSVMYELLDLAGRSSLMIPSEGQWDDSQSGQWFVKLNNGPKGNPRERVQIGRVIRDLYLTDWGGRQFMFENFNGTPLFAVFAATMTRDDMSAAGTYGKFASQVCGIEFGGAEPTAYAATADYAKALDKGLAPEPAAAESATS,soluble
9,MSLGKPLIALGLEGSANKLGVGIILHDTNGSAKILANVRHTYITPPGQGFLPSDTAKHHRAWIIPLIKQAFAEAKISFKDIDCICFTKGPGIGAPLNSVALCARMLSLIHKKPLVAVNHCIGHIEMGREITGAQNPVVLYVSGGNTQVIAYSEKKYRIFGETLDIAIGNCLDRFARIIGLSNAPSPGYNIMQEAKKGKRFIELPYTVKGMDCSFSGLLSGVEAAATELLDPKNPSSVTKQDLCYSLQETGFAMLVEITERAMAHIRADSVLIVGGVGCNERLQQMMAEMSSDRGADVFSTDERFCIDNGIMIAQAGLLAYKTGDRCAVAESTITQRYRTDDVYISWRDEGHHHHHH,soluble
10,MSLWLPSEATVYLPPVPVSKVVSTDEYVARTNIYYHAGTSRLLAVGHPYFPIKKPNNNKILVPKVSGLQYRVFRIHLPDPNKFGFPDTSFYNPDTQRLVWACVGVEVGRGQPLGVGISGHPLLNKLDDTENASAYAANAGVDNRECISMDYKQTQLCLIGCKPPIGEHWGKGSPCTQVAVQPGDCPPLELINTVIQDGDMVDTGFGAMDFTTLQANKSEVPLDICTSICKYPDYIKMVSEPYGDSLFFYLRREQMFVRHLFNRAGTVGENVPDDLYIKGSGSTANLASSNYFPTPSGSMVTSDAQIFNKPYWLQRAQGHNNGICWGNQLFVTVVDTTRSTNMSLCAAISTSETTYKNTNFKEYLRHGEEYDLQFIFQLCKITLTADVMTYIHSMNSTILEDWNFGLQPPPGGTLEDTYRFVTSQAIACQKHTPPAPKEDPLKKYTFWEVNLKEKFSADLDQFPLGRKFLLQLGLKAKPKFTLGKRKATPTTSSTSTTAKRKKRKL,soluble
11,MAHHHHHHMQYQRAALVIASPALTQREVEFTKSAWLAGLRPDQRTAQQMREVSVEFPLLSRDVVVVRCGGSVVTAAIATALVEPTPQRPKHGLLHFSVRRLHTERDSPAADGSTQKNLVAFLERLVRTGGVIDTAGLCVLPGQKVWSLTVDVTIMNDEGNCNDAAVWAVIALLMHHRRPELTVRGSSVIVHPPHEREPVPLSVQHTPLPFTFAITMAPTEREKALNHQRALSATGSSSGPQPSSGVGNSIDTASAFAIDGTSPQPLGVVVDPTTAESLAAASSIVVAINAEGQVCTVVKAEGCSIHLKDLNACIEAAGTLAPRVLDLIKVAMEAHDERRKTAMKGQFAWAQKRSGVGKVEQACVKKIKTET,not soluble
12,MRDVTKGSFNDSPNNGFFEIQYKEDGVYLTVHPPIGKGKAVEVNDVISRLTQKKIVYDKEMVELAVQRASNVPVKIGEPQEELKLDATIDVNISPDKMKATMVIRPPDGGRMLTKDEMMEILKNSGVRYGINESMLENVSKYPVYNEIIVIAEGTPPINGQNGKVEFHFDLKKERKPTILEDGRVDFRELNLIESVKKGQVLCTLVPPLPGTPGRTVEDIEVPALDGKPAVLPKGKNVEISEDGQSLIAGIDGQVNYIDGKVSVFANYEVPADVDNSTGNISFVGNVIIRGNVLSGFTVEAGGSVEVMGVVEAAVIKADGDIILRRGMQGLGRGILKSGGDIIAKYIENSIIEAKGDIKAEAIMHSNVKCGNKLELSGKKGLLIGGKCKVGKEIVAKVIGSYLATHTDIEVGVDPQIKERYKELRDEIRKIEEDLVKAEQAITILKKLEAAGKLTPEKQELMARSIRTKIYYSNRLGELKEELIITEQRLQKEADGKIRVFDHIYPGTKVTIGTSMMYVKEDLQYCTLYRDGADIRVGPIDK,soluble
13,MIGKKSFQTNVYRMSKFDTYIFNNLYINDYKMFWIDSGIAKLIDKNCLVSYEINSSSIILLKKNSIQRFSLTSLSDENINVSVITISDSFIRSLKSYILGDLMIRNLYSENKDLLLWNCEHNDIAVLSEVVNGFREINYSDEFLKVFFSGFFSKVEKKYNSIFITDDLDAMEKISCLVKSDITRNWRWADICGELRTNRMILKKELESRGVKFRELINSIRISYSISLMKTGEFKIKQIAYQSGFASVSYFSTVFKSTMNVAPSEYLFMLTGVAEK,soluble
14,AHHHHHHGSDKVYLTWWQVDRAIFALAEKLREYKPDVIVGIARGGLIPAVRLSHILGDIPLKVIDVKFYKGIEERGEKPVITIPIHGDLKDKKVVIVDDVSDTGKTLEVVIEEVKKLGAKEVKVACLAMKPWTSVVPDYYVFRTEKWIVFPWEEFPVIERE,not soluble
15,GAPSQGATANAETQTTIPLGDTSQNALDWPGVYEGVLPCASCEGIQTTLTLQADNSFELKSIYLGKDESIFKVAGKFDWDSNGSKITLSDGSKYLVGENQLLMLDTEGNRITGGLAEHYILKKKGM,soluble
16,MGSDKIHHHHHHMSQLLIKNAYLITMNADREVYENGSILIENNIIKEVGKFDINIVDKDAEIYDAKGKILMPGLVNTHVHLSQQLGRGLADDVVLLTWLRERIWPYESSFNYEDSLISSTACCVELIKSGVTTFLESGGQYVDAMVEAVDKTGLRACLAKSVMDTGDGLPEAWQKTTDEEINTQLDLFHKFNNTSNERIKIWFALRTIFNTTEELLVRTKELADKYNTGIHMHIAEIADEISFVKQNNGVGTVEYLDKLGVLGPNLLAAHTVWLTHKEIDLFRLHDVKVSHDPGSAMKVVLGFASIPEMLEKGIPVSIGTDGAPSNNRMDLMRDMYLTSLIHKGRTLNPTVVPAEEVLEMATINGAKCALLEKEIGSLEVGKKADMIILNPDTIHCLPMHNPIGNIVYSMTSENVDSTICDGKWLMKERKVLVVDESELLNKVKKQASKIKDKAEVKIPSKFKIIK,not soluble
